Measurements from patent publication US20150274845A1 (Hoffmann-La Roche, published 2015).

B1: (scFv)2 (antiMCSP/anti huCD3e) (bispecific antibody)
scFv: DIVLTQSPSSLSASLGDRVTISCSASQGIRNYLNWYQQRPDGTVKLLIYYTSSLHSGVPSRFSGSGSGTDYSLTISNLEPEDIATYYCQQYSKLPWTFGGGTKLEIKGGGGSGGGGSGGGGSEVQLQESGPGLVKPSQSLSLTCSVTGYSITSGYYWNWIRQFPGNKLEWMGYITYDGSNNYNPSLKNRISITRDTSKNQFFLKLNSVTTEDTATYYCADFDYWGQGTTLTVSSGGGGSEVQLVESGGGLVQPGGSLRLSCAASGYSFTGYTMNWVRQAPGKGLEWVALINPYKGVSTYNQKFKDRFTISVDKSKNTAYLQMNSLRAEDTAVYYCARSGYYGDSDWYFDVWGQGTLVTVSSVEGGSGGSGGSGGSGGVDDIQMTQSPSSLSASVGDRVTITCRASQDIRNYLNWYQQKPGKAPKLLIYYTSRLESGVPSRFSGSGSGTDYTLTISSLQPEDFATYYCQQGNTLPWTFGQGTKVEIKHHHHHH
B2: hu Fab (MCSP)-Crossfab (CD3) (bispecific antibody)
chain 1: EVQLQESGPGLVKPSQSLSLTCSVTGYSITSGYYWNWIRQFPGNKLEWMGYITYDGSNNYNPSLKNRISITRDTSKNQFFLKLNSVTTEDTATYYCADFDYWGQGTTLTVSSASTKGPSVFPLAPSSKSTSGGTAALGCLVKDYFPEPVTVSWNSGALTSGVHTFPAVLQSSGLYSLSSVVTVPSSSLGTQTYICNVNHKPSNTKVDKKVEPKSCDGGGGSGGGGSDIQMTQSPSSLSASVGDRVTITCRASQDIRNYLNWYQQKPGKAPKLLIYYTSRLESGVPSRFSGSGSGTDYTLTISSLQPEDFATYYCQQGNTLPWTFGQGTKVEIKSSASTKGPSVFPLAPSSKSTSGGTAALGCLVKDYFPEPVTVSWNSGALTSGVHTFPAVLQSSGLYSLSSVVTVPSSSLGTQTYICNVNHKPSNTKVDKKVEPKSC
light: DIVLTQSPSSLSASLGDRVTISCSASQGIRNYLNWYQQRPDGTVKLLIYYTSSLHSGVPSRFSGSGSGTDYSLTISNLEPEDIATYYCQQYSKLPWTFGGGTKLEIKRTVAAPSVFIFPPSDEQLKSGTASVVCLLNNFYPREAKVQWKVDNALQSGNSQESVTEQDSKDSTYSLSSTLTLSKADYEKHKVYACEVTHQGLSSPVTKSFNRGEC
chain 2: EVQLVESGGGLVQPGGSLRLSCAASGYSFTGYTMNWVRQAPGKGLEWVALINPYKGVSTYNQKFKDRFTISVDKSKNTAYLQMNSLRAEDTAVYYCARSGYYGDSDWYFDVWGQGTLVTVSSASVAAPSVFIFPPSDEQLKSGTASVVCLLNNFYPREAKVQWKVDNALQSGNSQESVTEQDSKDSTYSLSSTLTLSKADYEKHKVYACEVTHQGLSSPVTKSFNRGEC

Assays:
[1] = biological target: human CD3 T-Cell Co-Receptor (CD3) (human, UniProt P07766 23-207); assay: cell-based or functional assay
Chain of human CD3 T-Cell Co-Receptor (CD3) (P07766 23-207): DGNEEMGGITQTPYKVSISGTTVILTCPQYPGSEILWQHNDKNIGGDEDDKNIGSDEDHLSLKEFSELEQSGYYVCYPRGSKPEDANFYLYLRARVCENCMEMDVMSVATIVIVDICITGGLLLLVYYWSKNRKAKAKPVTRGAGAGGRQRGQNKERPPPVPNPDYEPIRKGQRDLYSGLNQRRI

[2] = biological target: human Melanoma-associated Chondroitin Sulfate Proteoglycan (MCSP) (human, UniProt Q6UVK1 30-2322); assay: cell-based or functional assay
Chain of human Melanoma-associated Chondroitin Sulfate Proteoglycan (MCSP) (Q6UVK1 30-2322): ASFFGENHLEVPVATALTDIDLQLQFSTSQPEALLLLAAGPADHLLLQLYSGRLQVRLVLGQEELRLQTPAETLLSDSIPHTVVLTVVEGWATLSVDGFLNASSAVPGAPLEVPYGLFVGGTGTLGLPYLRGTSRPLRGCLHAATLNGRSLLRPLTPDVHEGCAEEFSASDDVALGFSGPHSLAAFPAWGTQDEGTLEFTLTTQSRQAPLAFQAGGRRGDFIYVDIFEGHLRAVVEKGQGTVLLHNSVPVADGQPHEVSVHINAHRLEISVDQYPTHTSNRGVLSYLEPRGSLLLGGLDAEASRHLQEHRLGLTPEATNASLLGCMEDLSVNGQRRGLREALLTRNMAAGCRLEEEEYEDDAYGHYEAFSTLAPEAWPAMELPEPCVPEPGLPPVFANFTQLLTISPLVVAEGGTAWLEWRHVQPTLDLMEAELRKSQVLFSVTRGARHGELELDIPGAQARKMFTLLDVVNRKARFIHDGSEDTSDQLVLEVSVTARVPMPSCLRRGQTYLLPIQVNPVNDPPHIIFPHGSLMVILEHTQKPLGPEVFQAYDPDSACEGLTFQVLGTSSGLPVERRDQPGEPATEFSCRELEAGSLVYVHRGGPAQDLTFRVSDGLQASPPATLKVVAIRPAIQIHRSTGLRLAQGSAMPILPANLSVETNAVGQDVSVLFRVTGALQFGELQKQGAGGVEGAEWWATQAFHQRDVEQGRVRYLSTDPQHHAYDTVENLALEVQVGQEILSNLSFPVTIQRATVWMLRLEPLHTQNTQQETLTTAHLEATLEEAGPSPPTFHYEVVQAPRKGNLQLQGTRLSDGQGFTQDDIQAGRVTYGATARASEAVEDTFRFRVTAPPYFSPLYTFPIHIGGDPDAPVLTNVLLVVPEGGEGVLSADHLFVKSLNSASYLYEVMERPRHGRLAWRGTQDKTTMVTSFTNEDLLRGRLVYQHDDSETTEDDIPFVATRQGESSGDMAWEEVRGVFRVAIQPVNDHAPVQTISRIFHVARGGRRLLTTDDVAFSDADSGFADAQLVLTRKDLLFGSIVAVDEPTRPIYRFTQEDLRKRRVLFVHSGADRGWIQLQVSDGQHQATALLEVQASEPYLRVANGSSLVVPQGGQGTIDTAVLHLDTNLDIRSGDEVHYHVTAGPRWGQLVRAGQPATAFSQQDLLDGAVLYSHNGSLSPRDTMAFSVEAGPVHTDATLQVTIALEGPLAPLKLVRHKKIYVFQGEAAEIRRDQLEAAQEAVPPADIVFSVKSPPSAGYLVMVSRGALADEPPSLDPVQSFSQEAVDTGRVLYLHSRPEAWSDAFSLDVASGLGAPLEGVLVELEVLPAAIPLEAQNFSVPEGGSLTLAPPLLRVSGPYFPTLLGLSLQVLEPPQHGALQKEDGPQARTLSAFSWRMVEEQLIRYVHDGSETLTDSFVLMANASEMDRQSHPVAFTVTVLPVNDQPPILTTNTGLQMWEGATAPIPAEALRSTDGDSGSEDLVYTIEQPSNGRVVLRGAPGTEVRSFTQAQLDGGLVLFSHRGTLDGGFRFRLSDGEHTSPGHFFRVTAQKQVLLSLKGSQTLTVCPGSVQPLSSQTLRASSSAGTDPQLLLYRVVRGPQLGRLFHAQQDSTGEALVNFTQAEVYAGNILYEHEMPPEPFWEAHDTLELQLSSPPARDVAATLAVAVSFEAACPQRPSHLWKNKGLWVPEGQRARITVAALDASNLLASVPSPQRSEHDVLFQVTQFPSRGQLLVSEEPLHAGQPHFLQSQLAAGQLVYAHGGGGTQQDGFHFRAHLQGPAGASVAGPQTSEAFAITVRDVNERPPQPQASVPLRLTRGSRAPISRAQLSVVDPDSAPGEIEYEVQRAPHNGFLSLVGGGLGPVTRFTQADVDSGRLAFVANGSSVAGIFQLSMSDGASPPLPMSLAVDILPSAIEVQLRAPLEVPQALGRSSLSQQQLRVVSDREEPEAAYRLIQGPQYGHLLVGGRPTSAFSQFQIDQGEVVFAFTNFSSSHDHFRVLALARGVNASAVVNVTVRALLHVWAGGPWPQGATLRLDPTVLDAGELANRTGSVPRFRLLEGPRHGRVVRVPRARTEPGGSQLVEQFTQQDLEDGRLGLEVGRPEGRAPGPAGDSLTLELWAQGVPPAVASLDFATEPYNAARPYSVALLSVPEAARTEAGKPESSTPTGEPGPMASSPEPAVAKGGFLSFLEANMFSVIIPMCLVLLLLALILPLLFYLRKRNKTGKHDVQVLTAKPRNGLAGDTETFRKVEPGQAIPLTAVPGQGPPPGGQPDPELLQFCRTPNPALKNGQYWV

Binder | EC50 of killing (LDH release) of MV-3 tumor cells, human PBMCs, E:T 10:1, 24 hours [1] [nM] | EC50 of killing (LDH release) of MV-3 tumor cells, human PBMCs, E:T 10:1, 24 hours [2] [nM]
B1 | 0.057 | 0.057
B2 | 0.0254 | 0.0254
